# Changes are numbered by the printed parent chain.
# T1: hBCMA-ECD-FC5VHH (human, UniProt Q02223 1-54, biotinylated in vivo ; biotinylated in vivo on the tag of the carrier part, which is not in the letters)
# T1 construct: Made in HEK-293 cells, monomeric SEC fraction; The methods say about 500 RU captured on an SA chip; the results say immobilised on a CM5 chip; also called hBCMA-FC5; human BCMA-ECD; not shown: FC5 VHH carrier, any linker, and the His and biotinylation tags
# T1 sequence: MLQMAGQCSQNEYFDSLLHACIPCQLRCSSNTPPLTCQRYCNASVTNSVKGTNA
# B1: hBCMA-B5 (VHH)
# VHH: QVKLEESGGGLVQPGGSLRLSCAASGSIFGTYNMGWYRQAPGKQRELVAAISSAGNTFYRDSVKGRFTVSRDNAKNTVYLQMDRLKYEDTAVYNCNGAPWADAEVKVYNWGQGTQVTVSS
# modifications: single biotin on the C-terminal AviTag
# notes: not shown: C-terminal His tag and AviTag biotinylation signal from pMRO vector
# B2: hBCMA-VcMRo1(V1/V6) (VHH)
# VHH: EVQLQQSGGGLVQAGESLTISCAVFGDPITVATMGWYRQAPGKLRELVAAISSAGSTFYRDSVRGRFTVSRDNAKSTMYLQMDRLKVEDTAVYSCNGAPWGDAPVKVWTWGEGTQVTVSS
# modifications: single biotin on the C-terminal AviTag
# notes: as for B1
# B3: hBCMA-F2 (VHH)
# VHH: QVKLEESGGGLVKPGGSLRLSCGASGNSFGAYNMGWYRQAPGKQRELVAAISSTGNTFYRDSVRGRFTVSRDNAKSTMSLQMERLKPEDTAVYLCNGAPWGDDPVKVWSWGQGTQVTVSS
# modifications: single biotin on the C-terminal AviTag
# notes: as for B1
# B4: hBCMA-H1 (VHH)
# VHH: QVQLVESGGGLVQPGGSLRLSCAASGSGFGTHVMGWYRQAPGKPRELVAAISSAGSTFYRDSVKGRFTVSRDNAKNTMYLQMDRLKPEDTAVYYCNGAPWADEPVKVWNWGQGTQVTVSS
# modifications: single biotin on the C-terminal AviTag
# notes: as for B1
# B5: hBCMA-D2 (VHH)
# VHH: B1 VHH with K3Q, E5V, V78M, A101G, E104L, Y108W
# modifications: single biotin on the C-terminal AviTag
# notes: as for B1
# B6: hBCMA-3F2 (VHH)
# VHH: QVQLVESGGRLVQTGDSLRLTCEISGHTSNQFVLAWFRRPPGKEREVVATRFWGGGSPYYSDSVRGRFAIAIDDAKNTAYLQMSSLKPEDTAVYYCAATKDILSRGYDYWGQGTQVTVSS
# modifications: single biotin on the C-terminal AviTag
# notes: as for B1
# B7: hBCMA-2F10 (VHH)
# VHH: QVQLVESGGGLVQSGNSLRLSCSISGHTTKNFVMAWFRRAPGKERAIVATRVWSGGSPWYSESAKGRFTISIDDARNTAYLQMNNLKPEDTAVYYCAATKDIMSRGYVYWGLGTQVTVSS
# modifications: single biotin on the C-terminal AviTag
# notes: as for B1
# B8: hBCMA-2C3 (VHH)
# VHH: QVKLEESGGGLVQTGDSLRLACTISGRATDHFVMAWFRRAPGKEREYVATRVWSGGSPYYLDSAKGRFAIAIDNAKNTAYLQMNNLKPEDTAVYYCAATKDIMSRSYDYWGLGTQVTVSS
# modifications: single biotin on the C-terminal AviTag
# notes: Variant of E7 with the same CDRs; also called VHH #2; not shown: C-terminal His tag and AviTag biotinylation signal from pMRO vector
# Target: T1, hBCMA-ECD-FC5VHH
# Test: SPR (Biacore T200), VHH 20-500 nM over BCMA-ECD surface, 25 C
# Experimental: For surface Plasmon resonance, 15 selected VHHs were passed though size exclusion columns, Superdex 75 (GE Healthcare), respectively, in 10 mM HEPES, pH 7.4, containing 150 mM NaCl, 3 mM EDTA, monomeric sdAb fractions were collected and protein concentrations were determined by measuring absorbance at 280 nm (A280). Analysis were performed with Biacore T200 instrument (GE Healthcare). All measurements were carried out at 25° C. in 10 mM HEPES, pH 7.4, containing 150 mM NaCl, 3 mM EDTA and 0.005% surfactant P20 (GE Healthcare). Approximately 500 RUs of the recombinant monomeric BCMA-ECD (obtained after SEC purification of the BCMA-ECD-FC5VHH) were captured on SA sensor chip (GE Healthcare) at a flow rate of 5 uL/min. Various concentration of the monomeric VHHs (20-500 nM) were injected over BCMA-ECD surface, respectively using an SA surface as a reference at a flow rate of 40 μL/min. Surfaces were generated by washing with running buffer. Data were analysed with BIAevaluation 4.1 software.
# The monomeric fraction of all 15 VHHs were used for SPR experiment where the human BCMA-ECD or mouse BCMA was immobilized onto the CM5 dextran chip and various VHH concentration (20-500 nM) were passed over the sensor chip.
Kd,koff,kon,Binder
0.22 nM,0.00237 s⁻¹,1.08e+07 M⁻¹ s⁻¹,B1
0.303 nM,0.000262 s⁻¹,867000 M⁻¹ s⁻¹,B2
0.0683 nM,0.000349 s⁻¹,5.11e+06 M⁻¹ s⁻¹,B3
0.152 nM,0.000462 s⁻¹,3.05e+06 M⁻¹ s⁻¹,B4
0.403 nM,0.000978 s⁻¹,2.42e+06 M⁻¹ s⁻¹,B5
0.631 nM,0.00253 s⁻¹,4.01e+06 M⁻¹ s⁻¹,B6
0.216 nM,0.00091 s⁻¹,4.22e+06 M⁻¹ s⁻¹,B7

# Target: T1, hBCMA-ECD-FC5VHH
# Test: SPR
row,binding result,Binder
1,binds,B8

# From patent US20250000976A1 (NATIONAL RESEARCH COUNCIL OF CANADA, published 2025)
